Molecular target: T1, H6-CtBP2 (UniProt P56545 1-445)
T1 construct: also called H6-tagged wt CtBP2; wt CtBP2; source: purified
Assay: pull-down; GST fusion proteins charged on glutathione-agarose beads, incubated with purified H6-CtBP2 or H6-RR-CtBP2 (~0.1 μg) in 200 μl of 25 mM Tris-HCl pH 7.5, 0.25 M NaCl, 0.5% Triton X-100, 0.5 mM DTT for 1 h at 4°C; Western blot with the CtBP2 antibody
Details: both partners purified

binding result: binds
B1: GST-ZEB101 (domain or fragment, UniProt P37275-1 680-780, looked up)
chain: PLKMTNSPVLPVGSTTNGSRSSTPSPSPLNLSSSRNTQGYLYTAEGAQEEPQVEPLDLSLPKQQGELLERSTITSVYQNSVYSVQEEPLNLSCAKKEPQKD
notes: ZEB (ZEB1), GenBank NM_030751, aa 680-780; transferred from pGFP-ZEB101 to a pGST vector at XhoI/EcoRI; also called wt ZEB101; source: induced with 1 mM IPTG; lysate loaded onto glutathione-agarose beads

Source: paper PMC2749851, “Interaction of ZEB and Histone Deacetylase with the PLDLS-binding cleft region of monomeric C-terminal Binding Protein 2” (BMC Molecular Biology, 2009)
